In US12414933B2, “Polyphosphazene drug carriers” (ONSELEX PHARMACEUTICALS, INC., priority 2019, dated 2025):

Tested on: Sprague-Dawley rats
Assay: Intravenous toxicity study: maximum tolerated dose after a single IV injection, 7-day observation
Type: in vivo, rat
From the text: The objective of this study was to determine the maximum tolerated dose in test animals following a single parenteral administration, in this case an intravenous (IV) injection, of the drug delivery compositions to Sprague-Dawley rats followed by a 7-day observation period.
In this Example, drug delivery compositions were optimized to carry and deliver the active chemotherapeutic agent Paclitaxel (PTX at about 5%). (See, Table 5 infra). Briefly, under sterile conditions in a laminar flow cabinet sterile water for formation and injection purposes was added to the appropriate amount of drug deliver composition to provide concentrations of 350, 817, 1167, and 1750 mg/mL. The diluted drug deliver compositions were stirred, mixed, or vortexed as necessary to achieve sufficient distribution. The prepared drug deliver compositions were stored protect from light at ambient temperature. The final formulation for each concentration was passed through a 0.2 μm filter prior to administration. The target volume prepared for each dose was 1.55 mL. The actual volume dispensed post-filtering was recorded. Final formulations for administration can be used up to 4 hours after preparation.
Subjects in this Example consisted of age appropriate to weight intact male Sprague-Dawley rats. Various commercial sources of Sprague-Dawley rats are acceptable for supply of Subject animals. Maximum Subject animal weight at initiation of the administrations was 330 gm while minimum weight was 260 gm. Subject animals were housed, feed, provided watered ad libitum, and observed according to standard animal husbandry protocols. Subject animals were excluded for any observable disease or injury that could affect study outcome. […]

## [NP(MPEG550)3(Lys-OEt)(AA)(PTX)]n [PETTAX-121]
Group 4: single slow bolus IV 8750 mg/kg PETTAX-121 (PTX 437.5 mg/kg), 1 male rat
  Clinical results: morbidity / euthanasia: euthanized 20 hours after administration due to observed morbidity
Groups 1-3: single slow bolus IV 1750, 4083 and 5833 mg/kg PETTAX-121 (PTX 87.5, 204.2, 291.7 mg/kg), 1 male rat per group, 7-day observation
  Clinical results: tolerability / adverse reactions: tolerated their respective administration well with no observed adverse reactions or clinically significant observations
Groups 1-3: single slow bolus IV 1750, 4083 and 5833 mg/kg PETTAX-121, 1 male rat per group, 7-day observation
  Clinical results: physical changes: no significant physical changes
